In PMC3909728:

System: eVP35 IID WT (Ebola virus (EBOV))
Assay: filter binding

dsRNA
binding signal (fraction bound): < 0.3
